T1: LAMP1::histag (human, UniProt P11279 29-382)
T1 construct: extracellular domain without signal peptide, C-terminal 6 His tag, made in HEK293 cells; also called recombinant human LAMP1; human LAMP1 (29-382)
T1 sequence: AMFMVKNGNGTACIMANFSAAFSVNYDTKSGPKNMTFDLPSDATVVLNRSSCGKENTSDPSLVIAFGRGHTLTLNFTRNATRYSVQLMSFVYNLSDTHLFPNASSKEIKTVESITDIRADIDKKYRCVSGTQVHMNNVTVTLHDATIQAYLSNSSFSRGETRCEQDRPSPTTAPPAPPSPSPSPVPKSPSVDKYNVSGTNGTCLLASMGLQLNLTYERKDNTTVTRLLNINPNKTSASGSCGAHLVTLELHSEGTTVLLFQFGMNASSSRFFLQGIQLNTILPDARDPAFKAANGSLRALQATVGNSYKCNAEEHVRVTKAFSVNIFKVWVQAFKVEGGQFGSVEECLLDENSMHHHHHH

T2: cLAMP1::histag (cynomolgus monkey, UniProt P11279 29-380 (human entry))
T2 construct: extracellular domain with C-terminal tag that includes 6 His; also called cynomolgus LAMP1 (27-380); cynomolgus monkey LAMP1 protein
T2 chain: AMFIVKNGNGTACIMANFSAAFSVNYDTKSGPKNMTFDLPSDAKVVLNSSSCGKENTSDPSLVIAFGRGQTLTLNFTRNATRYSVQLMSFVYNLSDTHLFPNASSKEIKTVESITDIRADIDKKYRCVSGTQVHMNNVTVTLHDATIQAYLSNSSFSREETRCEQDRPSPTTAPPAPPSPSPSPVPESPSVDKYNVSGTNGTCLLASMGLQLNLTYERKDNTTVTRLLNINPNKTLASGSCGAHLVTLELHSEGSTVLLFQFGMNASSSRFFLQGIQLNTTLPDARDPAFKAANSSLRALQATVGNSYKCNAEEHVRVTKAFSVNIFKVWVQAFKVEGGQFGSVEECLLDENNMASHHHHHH

T3: human LAMP1 at the cell surface (human, UniProt P11279 29-417)
T3 construct: native on tumour cells (PDX, Colo205, SW480, LS174T) or from the cloned CDS NM_005561.3 in HEK293 and HCT116; signal peptide 1-28 left out; also called huLAMP1; full length human LAMP1
T3 sequence: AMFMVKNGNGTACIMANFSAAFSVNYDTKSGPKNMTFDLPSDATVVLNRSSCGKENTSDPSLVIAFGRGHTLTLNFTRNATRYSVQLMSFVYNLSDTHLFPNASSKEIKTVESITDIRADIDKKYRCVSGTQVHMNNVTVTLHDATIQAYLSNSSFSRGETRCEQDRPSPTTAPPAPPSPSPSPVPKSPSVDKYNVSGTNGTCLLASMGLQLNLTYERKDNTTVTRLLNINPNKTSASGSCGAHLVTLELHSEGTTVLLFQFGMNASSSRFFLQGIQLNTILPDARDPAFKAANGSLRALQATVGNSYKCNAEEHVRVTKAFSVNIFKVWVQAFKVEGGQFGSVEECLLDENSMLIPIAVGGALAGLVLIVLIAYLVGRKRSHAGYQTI

T4: LAMP1_mL1_hL234_ΔGYQTI (mouse; human)
T4 construct: on cells; also called pXL5668
T4 chain: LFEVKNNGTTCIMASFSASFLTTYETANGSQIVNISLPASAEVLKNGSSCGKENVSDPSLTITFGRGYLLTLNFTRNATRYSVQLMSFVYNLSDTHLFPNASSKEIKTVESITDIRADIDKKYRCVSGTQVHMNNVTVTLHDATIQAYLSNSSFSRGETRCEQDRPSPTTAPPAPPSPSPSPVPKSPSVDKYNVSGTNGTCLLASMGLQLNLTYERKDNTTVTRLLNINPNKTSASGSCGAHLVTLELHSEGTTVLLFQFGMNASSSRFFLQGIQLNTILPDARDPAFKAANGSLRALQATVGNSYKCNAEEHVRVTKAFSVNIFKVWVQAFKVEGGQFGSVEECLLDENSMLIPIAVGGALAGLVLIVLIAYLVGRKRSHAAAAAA

T5: LAMP1_mL1_hL2_mL34_ΔGYQTI (mouse; human, UniProt P11438 25-369)
T5 construct: on cells; also called pXL5988; not shown: transmembrane domain and cytoplasmic tail with GYQTI replaced by 5 Ala
T5 chain: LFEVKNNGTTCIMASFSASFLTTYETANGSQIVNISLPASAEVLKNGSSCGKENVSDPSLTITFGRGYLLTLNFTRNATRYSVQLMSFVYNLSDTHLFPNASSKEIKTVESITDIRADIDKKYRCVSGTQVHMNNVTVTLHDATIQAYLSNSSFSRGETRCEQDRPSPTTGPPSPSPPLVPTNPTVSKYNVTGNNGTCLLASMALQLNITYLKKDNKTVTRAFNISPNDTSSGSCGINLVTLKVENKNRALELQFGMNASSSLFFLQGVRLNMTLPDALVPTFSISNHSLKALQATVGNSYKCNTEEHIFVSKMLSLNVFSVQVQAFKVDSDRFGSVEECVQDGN


How the values were obtained:
LAMP1::histag [1] = target: T1, LAMP1::histag; assay: ELISA
cLAMP1::histag [2] = target: T2, cLAMP1::histag; assay: ELISA
[3] = target: T6, recombinant human LAMP2 with a C-terminal 10 His-tag (human, UniProt P13473 29-375); assay: ELISA with soluble LAMP1 or LAMP2
T6 construct: bought; also called soluble LAMP2 protein (R&D Systems 6228-LM)
T6 sequence (P13473 other isoform, or with tags, fused parts or gaps): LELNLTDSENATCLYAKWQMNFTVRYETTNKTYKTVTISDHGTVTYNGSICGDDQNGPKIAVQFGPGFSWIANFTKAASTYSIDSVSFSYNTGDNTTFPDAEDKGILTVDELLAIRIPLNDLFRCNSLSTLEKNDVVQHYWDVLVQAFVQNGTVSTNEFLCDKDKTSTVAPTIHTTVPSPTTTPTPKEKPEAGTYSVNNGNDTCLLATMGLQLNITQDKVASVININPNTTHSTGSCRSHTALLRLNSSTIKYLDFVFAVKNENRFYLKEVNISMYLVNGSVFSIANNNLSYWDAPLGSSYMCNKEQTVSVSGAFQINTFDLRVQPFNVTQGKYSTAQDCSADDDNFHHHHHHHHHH

LAMP1::histag [4] = target: T1, LAMP1::histag; assay: ELISA on recombinant human LAMP1
cLAMP1::histag [5] = target: T2, cLAMP1::histag; assay: ELISA on recombinant cynomolgus LAMP1
[6] = target: T6, recombinant human LAMP2 with a …; assay: ELISA on coated soluble human LAMP2
[7] = target: T3, human LAMP1 at the cell surface; assay: flow cytometry, dissociated CR-IGR-034P colon PDX cells
Procedure: Advanced human primary colon tumor CR-IGR-034P was obtained from Patient-derived xenograft in mice. Tumor CR-IGR-034P was enzymatically dissociated using collagenase Type IV (Invitrogen; #17104-019) and deoxyribonuclease I (Invitrogen; #18047-019) for 1 h at 4° C. Cell viability was estimated by Viacount application using Guava® easyCyte™ 8HT Flow Cytometry System. […] 100 μL/well of goat anti-mouse IgG conjugated with Alexa647 (Invitrogen; # A2135) or goat anti-human IgG conjugated with Alexa488 (Invitrogen; # A11013) was added for 45 min at 4° C. and washed three times with PBS 1% BSA. The antibody binding was evaluated after centrifugation and resuspension of cells by adding 200 μl/well PBS 1% BSA and read using Guava® easyCyte™ 8HT Flow Cytometry System. EC50 values were estimated using BIOST@T-SPEED software.

[8] = target: T3, human LAMP1 at the cell surface; assay: cell-based or functional assay
LAMP1_mL1_hL234_ΔGYQTI = target: T4, LAMP1_mL1_hL234_ΔGYQTI; assay: flow cytometry, transfected 293-F cells
[9] = target: T5, LAMP1_mL1_hL2_mL34_ΔGYQTI; assay: flow cytometry, transfected 293-F cells

Row | EC50 (LAMP1::histag [1]) | EC50 (cLAMP1::histag [2]) | fold difference of EC50 (LAMP1 versus LAMP2) [3] | EC50 (LAMP1::histag [4]) | EC50 (cLAMP1::histag [5]) | binding result [6] | EC50 [7] | ADCC EC50, NK batch 6712562616 [8] | ADCC EC50, NK batch 67125626389 [8] | ADCC EC50, NK batch 67125903091 [8] | binding result (LAMP1_mL1_hL234_ΔGYQTI) | binding result [9] | Binder
1 | 200 to 400 pM | 200 to 400 pM | > 100 fold | 390 pM | 220 pM | no binding (tested: 10 µg/mL) | 1300 pM |  |  |  |  |  | MAb4 (antibody, mouse IgG1, V domains shown, also called antibody from hybridoma 88LAMP1-2) VH: QVQLQQSGAELVRPGTSVKVSCKASGYAFTNYLIEWVKQRPGQGLEWIGVINPGSGGTNYNEKFKGKATLTADKSSSTAYMQLSSLTSDDSAVYFCARYRSYDWYFDVWGAGTTVTVSS VL: DIQMTQSPASLSASVGETVTITCRVSGNIHNYLAWYQQKQGKSPQLLVYNAKTLADGVPSRFSGSGSGTQYSLKINSLQPEDFGSYYCQHFWSNPYTFGGGTKLEIK
2 |  |  |  |  |  |  |  | 2000 pM | 100 pM | 500 pM | no binding | no binding | chMAb2 (antibody, human IgG1, kappa, chimeric, human IgG1, Ckappa) heavy: not shown light: NIVLTQSPVSLAVSLGQRATISCRASESVDINGNTFMHWYQQKPGQSPKLVIYAASNIESGVPARFSGSGSSTDFTFTIDPVEADDVATYYCQQNIEDPWTFGGGTKVEIKRTVAAPSVFIFPPSDEQLKSGTASVVCLLNNFYPREAKVQWKVDNALQSGNSQESVTEQDSKDSTYSLSSTLTLSKADYEKHKVYACEVTHQGLSSPVTKSFNRGEC
